Numbering of substitutions follows the chain as printed. In names and notes the source's numbering stands.
Experiments:
Native HvExoI = Native HvExoI (Hordeum vulgare, UniProt Q9XEI3); assay: Inhibition by thio-analogues using the 4NP-Glc substrate; format: biochemical; conditions: for ΔG: calculated according to ∆G = -RT ln [1/Ki]; for Ki: apparent inhibition constant, 4NP-Glc substrate
Procedure: (§1) Dependency of activities of WT and mutant HvExoI on pH (McIlvaine buffers in the pH range of 3.5–8.5 at 30 °C) and temperature (100 mM sodium acetate buffer, pH 5.25, temperature range 0–80 °C, 15 min incubations) were determined using 0.2% (w/v) 4NP-Glc[21],[59]. Relative rates of hydrolysis of β-linked poly-, oligosaccharides, and aryl-glucosides were determined using near-homogenous HvExoI at 50 pmoles. […] Kinetic parameters were calculated from the analyses of Michaelis-Menten plots with Grafit 7.0.3[62] and processed by a proportional weighted fit, using nonlinear regression. The relative rates of hydrolysis, kinetic, and inhibition data were rounded to one or two decimal points (Supplementary Tables 2–4).

WT HvExoI [1] = target: T1, WT HvExoI (Hordeum vulgare, UniProt Q9XEI3); assay: as above; format: biochemical; conditions: for ΔG: calculated according to ∆G = -RT ln [1/Ki]; for type of inhibition: WT HvExoI
T1 sequence (Q9XEI3 entry or part of it): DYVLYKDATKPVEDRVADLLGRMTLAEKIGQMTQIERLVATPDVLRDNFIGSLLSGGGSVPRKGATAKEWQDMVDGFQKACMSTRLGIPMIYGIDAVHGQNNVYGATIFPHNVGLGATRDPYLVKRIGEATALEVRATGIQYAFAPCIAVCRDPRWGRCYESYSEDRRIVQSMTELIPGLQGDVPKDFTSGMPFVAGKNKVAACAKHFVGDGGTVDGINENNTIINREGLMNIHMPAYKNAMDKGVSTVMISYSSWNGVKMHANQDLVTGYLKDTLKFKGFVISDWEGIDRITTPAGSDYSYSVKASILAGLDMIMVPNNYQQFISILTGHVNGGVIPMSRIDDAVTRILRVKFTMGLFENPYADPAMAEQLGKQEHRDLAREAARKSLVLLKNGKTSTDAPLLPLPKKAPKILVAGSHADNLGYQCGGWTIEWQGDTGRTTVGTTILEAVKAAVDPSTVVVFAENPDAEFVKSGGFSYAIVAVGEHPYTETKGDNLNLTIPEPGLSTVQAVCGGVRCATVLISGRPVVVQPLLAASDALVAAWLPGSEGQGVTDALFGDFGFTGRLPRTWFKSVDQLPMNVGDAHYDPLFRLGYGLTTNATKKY
Procedure: as §1

Recombinant HvExoI W286Y = format: biochemical, Hordeum vulgare; conditions: calculated according to ∆G = -RT ln [1/Ki]
Procedure: as §1

Recombinant HvExoI W286F = assay: Inhibition by thio-analogues using the 4NP-Glc substrate; format: biochemical, Hordeum vulgare; conditions: calculated according to ∆G = -RT ln [1/Ki]
Procedure: as §1

Recombinant HvExoI W434H = assay: as above; format: biochemical, Hordeum vulgare; conditions: for ΔG: calculated according to ∆G = -RT ln [1/Ki]
Procedure: as §1

Recombinant HvExoI W434F = assay: as above; format: biochemical, Hordeum vulgare; conditions: for ΔG: calculated according to ∆G = -RT ln [1/Ki]
Procedure: as §1

Recombinant HvExoI W434Y = assay: as above; format: biochemical, Hordeum vulgare; conditions: calculated according to ∆G = -RT ln [1/Ki]
Procedure: as §1

WT HvExoI [2] = target: T1, WT HvExoI; assay: Relative rates of hydrolysis of poly-, oligosaccharides and aryl-glycosides; format: biochemical; conditions: substance is the substrate, HvExoI at 50 pmoles, nd = activity not detected
Procedure: as §1

HvExoI W434H mutant = target: T2, HvExoI W434H mutant (Hordeum vulgare, UniProt Q9XEI3, W459H); assay: as above; format: biochemical; conditions: substance is the substrate
T2 sequence (Q9XEI3 26-630 W459H): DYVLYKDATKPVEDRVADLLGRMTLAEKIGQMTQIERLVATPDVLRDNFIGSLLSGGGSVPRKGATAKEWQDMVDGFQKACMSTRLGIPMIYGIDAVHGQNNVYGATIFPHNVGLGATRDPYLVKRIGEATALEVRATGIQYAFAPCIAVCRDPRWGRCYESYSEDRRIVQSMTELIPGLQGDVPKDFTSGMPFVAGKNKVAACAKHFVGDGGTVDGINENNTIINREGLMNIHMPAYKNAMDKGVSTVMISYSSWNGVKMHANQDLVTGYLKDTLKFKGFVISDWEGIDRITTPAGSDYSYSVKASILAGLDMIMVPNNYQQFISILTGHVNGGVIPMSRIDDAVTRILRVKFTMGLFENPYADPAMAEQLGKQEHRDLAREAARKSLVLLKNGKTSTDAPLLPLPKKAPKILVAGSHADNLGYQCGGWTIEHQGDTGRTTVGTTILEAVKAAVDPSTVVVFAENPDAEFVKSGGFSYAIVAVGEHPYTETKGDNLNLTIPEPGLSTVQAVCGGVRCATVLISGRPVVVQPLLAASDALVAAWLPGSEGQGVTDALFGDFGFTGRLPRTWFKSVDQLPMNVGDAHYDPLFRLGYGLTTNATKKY
Procedure: as §1

Recombinant HvExoI W434A = assay: Inhibition by thio-analogues using the 4NP-Glc substrate; format: biochemical, Hordeum vulgare; conditions: calculated according to ∆G = -RT ln [1/Ki]
Procedure: as §1

[3] = target: T3, HvExoI W286F/W434F mutant (Hordeum vulgare, UniProt Q9XEI3, W311F/W459F); assay: Relative rates of hydrolysis of poly-, oligosaccharides and aryl-glycosides; format: biochemical; conditions: substance is the substrate, nd = activity not detected
T3 sequence (Q9XEI3 26-630 W311F/W459F): T2 sequence (Q9XEI3 26-630 W459H) with W286F, H434F
Procedure: as §1

[4] = substrate: O=[N+]([O-])c1ccc(O[C@@H]2O[C@H](CO)[C@@H](O)[C@H](O)[C@H]2O)cc1; assay: Steady-state apparent kinetic constants with substrates; format: biochemical, Hordeum vulgare; conditions: substance is the substrate, pH 5.25, 30.0 °C
[5] = substrate: OC[C@H]1O[C@@H](O[C@H]2[C@H](O)[C@@H](CO)OC(O)[C@@H]2O)[C@H](O)[C@@H](O)[C@@H]1O; assay: as above; format: biochemical, Hordeum vulgare; conditions: substance is the substrate, pH 5.25, 30.0 °C

Sequence of Native HvExoI (Q9XEI3 entry or part of it): as the sequence (Q9XEI3 entry or part of it) above

CO[C@@H]1O[C@H](CO)[C@@H](O)[C@H](O)[C@H]1S[C@@H]1O[C@H](CO)[C@@H](O)[C@H](O)[C@H]1O [G2SG-OMe, methyl 2-thio-β-sophoroside]
ΔG (Native HvExoI): -3.75 kcal/mol | ΔG (WT HvExoI [1]; Recombinant WT): -3.32 kcal/mol

CO[C@@H]1O[C@H](CS[C@@H]2O[C@H](CO)[C@@H](O)[C@H](O)[C@H]2O)[C@@H](O)[C@H](O)[C@H]1O [G6SG-OMe, methyl 6-thio-β-gentiobioside]
ΔG (Recombinant HvExoI W286Y): -4.88 kcal/mol | ΔG (Recombinant HvExoI W286F): -5.14 kcal/mol | fold higher Ki constant value compared to WT (Recombinant HvExoI W434H): 8 fold | ΔG (Recombinant HvExoI W434H): -4.3 kcal/mol | fold higher Ki constant value compared to WT (Recombinant HvExoI W434F): 6 fold | ΔG (Recombinant HvExoI W434F): -4.47 kcal/mol | ΔG (Recombinant HvExoI W434Y): -4.88 kcal/mol | Ki (Native HvExoI): 100 µM | ΔG (Native HvExoI): -5.54 kcal/mol | ΔG (WT HvExoI [1]; Recombinant WT): -5.09 kcal/mol | type of inhibition (WT HvExoI [1]): competitive inhibition

O=[N+]([O-])c1ccc(O[C@@H]2O[C@H](CO)[C@@H](O[C@@H]3O[C@H](CO)[C@@H](O)[C@H](O)[C@H]3O)[C@H](O)[C@H]2O)cc1 [4NP-cellobioside]
Activity (relative rate of hydrolysis) (WT HvExoI [2]): 0.9 ± 0.01 μmole/min per mg protein | Activity (relative rate of hydrolysis) (HvExoI W434H mutant): 0.04 ± 0.001 μmole/min per mg protein

CO[C@@H]1O[C@H](CO)[C@@H](S[C@@H]2O[C@H](CO)[C@@H](O)[C@H](O)[C@H]2O)[C@H](O)[C@H]1O [G4SG-OMe, methyl 4-thio-β-cellobioside]
ΔG (Recombinant HvExoI W286Y): -3.68 kcal/mol | ΔG (Recombinant HvExoI W286F): -3.75 kcal/mol | ΔG (Recombinant HvExoI W434H): -3.85 kcal/mol | ΔG (Recombinant HvExoI W434F): -3.42 kcal/mol | ΔG (Recombinant HvExoI W434A): -3.68 kcal/mol | ΔG (Recombinant HvExoI W434Y): -3.3 kcal/mol | Ki (Native HvExoI): 1000 µM | ΔG (Native HvExoI): -4.16 kcal/mol | Ki (WT HvExoI [1]; Recombinant WT, apparent inhibition constant, 4NP-Glc substrate): 1000 µM | ΔG (WT HvExoI [1]; Recombinant WT): -4.16 kcal/mol | type of inhibition (WT HvExoI [1]): competitive inhibition

lichenin
Activity (relative rate of hydrolysis) [3]: 0.03 ± 0.001 μmole/min per mg protein | Activity (relative rate of hydrolysis) (WT HvExoI [2]): 0.8 ± 0.1 μmole/min per mg protein | Activity (relative rate of hydrolysis) (HvExoI W434H mutant): 0.03 ± 0.01 μmole/min per mg protein

B1: HvExoI W286F mutant (Hordeum vulgare subsp. vulgare; W311F) (protein)
chain: T2 sequence (Q9XEI3 26-630 W459H) with W286F, H434W
Km ([4]; other: W286F): 2400 ± 300 µM | kcat ([4]; other: W286F): 1.9 ± 0.1 s⁻¹ | kcat/Km ([4]; other: W286F): 800 ± 10 M⁻¹ s⁻¹ | Km ([5]; other: W286F): 400 ± 40 µM | kcat ([5]; other: W286F): 2.6 ± 0.2 s⁻¹ | kcat/Km ([5]; other: W286F): 5800 ± 400 M⁻¹ s⁻¹

B2: HvExoI W286Y mutant (Hordeum vulgare subsp. vulgare; W311Y) (protein)
chain: T2 sequence (Q9XEI3 26-630 W459H) with W286Y, H434W
Km ([4]; other: W286Y): 2000 ± 100 µM | kcat ([4]; other: W286Y): 28.8 ± 2.9 s⁻¹ | kcat/Km ([4]; other: W286Y): 14600 ± 1500 M⁻¹ s⁻¹ | Km ([5]; other: W286Y): 400 ± 40 µM | kcat ([5]; other: W286Y): 20.7 ± 1.7 s⁻¹ | kcat/Km ([5]; other: W286Y): 52600 ± 1500 M⁻¹ s⁻¹

B3: HvExoI W434A mutant (Hordeum vulgare subsp. vulgare; W459A) (protein)
chain: T2 sequence (Q9XEI3 26-630 W459H) with H434A
Km ([4]; other: W434A): 500 ± 100 µM | kcat ([4]; other: W434A): 9.5 ± 0.7 s⁻¹ | kcat/Km ([4]; other: W434A): 17600 ± 1800 M⁻¹ s⁻¹ | Km ([5]; other: W434A): 2100 ± 200 µM | kcat ([5]; other: W434A): 2.6 ± 0.2 s⁻¹ | kcat/Km ([5]; other: W434A): 1300 ± 100 M⁻¹ s⁻¹

B4: HvExoI W434H mutant (Hordeum vulgare subsp. vulgare; W459H) (protein)
chain: T2 sequence (Q9XEI3 26-630 W459H)
Km ([4]; other: W434H): 2200 ± 200 µM | kcat ([4]; other: W434H): 7.7 ± 0.6 s⁻¹ | kcat/Km ([4]; other: W434H): 3500 ± 400 M⁻¹ s⁻¹ | Km ([5]; other: W434H): 1700 ± 400 µM | kcat ([5]; other: W434H): 51.8 ± 2.0 s⁻¹ | kcat/Km ([5]; other: W434H): 31300 ± 7300 M⁻¹ s⁻¹

B5: HvExoI W434F mutant (Hordeum vulgare subsp. vulgare; W459F) (protein)
chain: T2 sequence (Q9XEI3 26-630 W459H) with H434F
Km ([4]; other: W434F): 600 ± 40 µM | kcat ([4]; other: W434F): 6.6 ± 0.7 s⁻¹ | kcat/Km ([4]; other: W434F): 12700 ± 2100 M⁻¹ s⁻¹ | Km ([5]; other: W434F): 1700 ± 200 µM | kcat ([5]; other: W434F): 17.1 ± 1.6 s⁻¹ | kcat/Km ([5]; other: W434F): 9900 ± 1200 M⁻¹ s⁻¹

B6: HvExoI W434Y mutant (Hordeum vulgare subsp. vulgare; W459Y) (protein)
chain: T2 sequence (Q9XEI3 26-630 W459H) with H434Y
Km ([4]; other: W434Y): 300 ± 30 µM | kcat ([4]; other: W434Y): 1.2 ± 0.1 s⁻¹ | kcat/Km ([4]; other: W434Y): 3500 ± 400 M⁻¹ s⁻¹ | Km ([5]; other: W434Y): 600 ± 100 µM | kcat ([5]; other: W434Y): 2.0 ± 0.1 s⁻¹ | kcat/Km ([5]; other: W434Y): 3300 ± 300 M⁻¹ s⁻¹

B7: HvExoI W286F/W434F mutant (Hordeum vulgare subsp. vulgare; W311F/W459F) (protein)
chain: T2 sequence (Q9XEI3 26-630 W459H) with W286F, H434F
Km ([4]; other: W286F/W434F): 600 ± 100 µM | kcat ([4]; other: W286F/W434F): 0.7 ± 0.02 s⁻¹ | kcat/Km ([4]; other: W286F/W434F): 1200 ± 200 M⁻¹ s⁻¹ | Km ([5]; other: W286F/W434F): 200 ± 20 µM | kcat ([5]; other: W286F/W434F): 0.5 ± 0.04 s⁻¹ | kcat/Km ([5]; other: W286F/W434F): 3000 ± 600 M⁻¹ s⁻¹

B8: HvExoI W286F/W434A mutant (Hordeum vulgare subsp. vulgare; W311F/W459A) (protein)
chain: T2 sequence (Q9XEI3 26-630 W459H) with W286F, H434A
Km ([4]; other: W286F/W434A): 700 ± 40 µM | kcat ([4]; other: W286F/W434A): 1.9 ± 0.1 s⁻¹ | kcat/Km ([4]; other: W286F/W434A): 2500 ± 200 M⁻¹ s⁻¹ | Km ([5]; other: W286F/W434A): 700 ± 200 µM | kcat ([5]; other: W286F/W434A): 0.2 ± 0.02 s⁻¹ | kcat/Km ([5]; other: W286F/W434A): 200 ± 30 M⁻¹ s⁻¹

B9: WT HvExoI (Hordeum vulgare subsp. vulgare) (protein)
chain: T2 sequence (Q9XEI3 26-630 W459H) with H434W
Km ([4]; other: WT): 2000 ± 150 µM | kcat ([4]; other: WT): 27.7 ± 2.5 s⁻¹ | kcat/Km ([4]; other: WT): 13900 ± 600 M⁻¹ s⁻¹

Reference: paper PMC9508125, “The evolutionary advantage of an aromatic clamp in plant family 3 glycoside exo-hydrolases” (Nature Communications, 2022)
